Reference: paper PMC2854237 (Insect biochemistry and molecular biology, 2010)
Like-named read-outs stand apart in the source and are kept apart here.

Tests used:
[1] = target: D. pseudoobscura ovulin C-terminal fragment, 6xHis-tagged (D. pseudoobscura); assay: cross-linking
[2] = target: D. melanogaster ovulin (Acp26Aa), endogenous in male accessory glands (D. melanogaster (endogenous in male accessory glands)); assay: non-reducing SDS-PAGE and Western blot of SDS-stable complexes
[3] = target: D. melanogaster ovulin (Acp26Aa), endogenous in male accessory glands (D. melanogaster (endogenous in male accessory glands)); assay: as above; remark: listed apart in the source
[4] = target: D. yakuba ovulin C-terminal fragment, 6xHis-tagged (D. yakuba); assay: cross-linking
[5] = target: the molecule itself; assay: cross-linking
[6] = target: the molecule itself; assay: non-reducing SDS-PAGE and Western blot of SDS-stable complexes

D. pseudoobscura ovulin C-terminal fragment, 6xHis-tagged (domain or fragment)
stoichiometry N [1]: 2

D. melanogaster ovulin (Acp26Aa), endogenous in male accessory glands (natural protein)
stoichiometry N [2]: 2 | stoichiometry N [3]: 2

D. yakuba ovulin C-terminal fragment, 6xHis-tagged (domain or fragment)
stoichiometry N [4]: 2

B1: D. simulans ovulin C-terminal fragment, 6xHis-tagged (domain or fragment, UniProt P33737 156-255, looked up)
chain: RQLNIDLELELEALKRKLSEMNAQNARKPTKSCKKRPSKDIAPPANQLQEVIVKNTYRNKYLTLLTQLAQKINYEIANVNNPATDVPTGKSPSEGNPSTT
stoichiometry N [5]: 2

NVRNTYRNKYLTLLKELSQKINNEIAKVATDVPTETNPSQGNLPTL (domain or fragment, UniProt P10333 219-264, looked up) [Wild-type D. melanogaster ovulin C45 (C-terminal fragment), 6xHis- and Xpress-tagged]
stoichiometry N [5]: 2

B2: D. simulans ovulin (putative ortholog), endogenous in male accessory glands (natural protein, UniProt P33737 19-255, looked up)
chain: NCDGEHQLDSSMDLKSDSTKSAVLKNVAPKNDATQAEIAKDDVALKSGKKGDYVMDIDVCTMPLDDYPINNSKSRKNSSTLPSQILTDKPNQGSNQIALKALKHRLLMEQNNNLFLRNHSVSLMNEIEARKTDIIQARQLNIDLELELEALKRKLSEMNAQNARKPTKSCKKRPSKDIAPPANQLQEVIVKNTYRNKYLTLLTQLAQKINYEIANVNNPATDVPTGKSPSEGNPSTT
stoichiometry N [6]: 2
